According to patent US20150322129A1 (Sanofi, published 2015):
Where two headings read alike, the source gives them in different places. Numbered stars: 1 amine (or outer) side, 2 acyl side, 3 side chain; on linkers, the order of the positions; unused ones are H or OH. Square brackets hold non-standard residues; d marks the D form. Side chains are listed from the residue outwards. Ends that are not written are not given here. * marks the point of attachment. γGlu = O=C(O)[C@H](CCC(=O)[*:2])N[*:1]; Stearoyl = CCCCCCCCCCCCCCCCCC(=O)*; Palmitoyl = CCCCCCCCCCCCCCCC(=O)*; Aib = CC(C)(N)C(=O)O

T1: human GIP receptor (human, UniProt P48546 22-466)
T1 sequence (looked up): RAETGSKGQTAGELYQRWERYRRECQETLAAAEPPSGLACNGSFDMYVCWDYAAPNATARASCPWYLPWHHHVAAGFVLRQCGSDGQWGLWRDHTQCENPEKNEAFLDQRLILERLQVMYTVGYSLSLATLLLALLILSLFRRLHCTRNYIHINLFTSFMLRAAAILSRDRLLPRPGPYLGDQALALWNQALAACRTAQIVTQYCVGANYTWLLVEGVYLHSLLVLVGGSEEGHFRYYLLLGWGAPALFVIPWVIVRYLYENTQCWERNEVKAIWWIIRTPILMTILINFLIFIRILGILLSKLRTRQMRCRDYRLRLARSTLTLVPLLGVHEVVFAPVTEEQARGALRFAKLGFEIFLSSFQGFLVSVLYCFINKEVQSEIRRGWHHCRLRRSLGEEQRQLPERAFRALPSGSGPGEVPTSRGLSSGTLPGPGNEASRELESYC

B1: SEQ ID NO: 25 (peptide)
peptide: H-H[dS]HGTFTSDLSKQK([γGlu-Stearoyl])EEEAVRLFIEWLKAGGPSSGAPPPS-NH2
SMILES: CCCCCCCCCCCCCCCCCC(=O)N[C@@H](CCC(=O)NCCCC[C@H](NC(=O)[C@H](CCC(N)=O)NC(=O)[C@H](CCCCN)NC(=O)[C@H](CO)NC(=O)[C@H](CC(C)C)NC(=O)[C@H](CC(=O)O)NC(=O)[C@H](CO)NC(=O)[C@@H](NC(=O)[C@H](Cc1ccccc1)NC(=O)[C@@H](NC(=O)CNC(=O)[C@H](Cc1c[nH]cn1)NC(=O)[C@@H](CO)NC(=O)[C@@H](N)Cc1c[nH]cn1)[C@@H](C)O)[C@@H](C)O)C(=O)N[C@@H](CCC(=O)O)C(=O)N[C@@H](CCC(=O)O)C(=O)N[C@@H](CCC(=O)O)C(=O)N[C@@H](C)C(=O)N[C@H](C(=O)N[C@@H](CCCNC(=N)N)C(=O)N[C@@H](CC(C)C)C(=O)N[C@@H](Cc1ccccc1)C(=O)N[C@H](C(=O)N[C@@H](CCC(=O)O)C(=O)N[C@@H](Cc1c[nH]c2ccccc12)C(=O)N[C@@H](CC(C)C)C(=O)N[C@@H](CCCCN)C(=O)N[C@@H](C)C(=O)NCC(=O)NCC(=O)N1CCC[C@H]1C(=O)N[C@@H](CO)C(=O)N[C@@H](CO)C(=O)NCC(=O)N[C@@H](C)C(=O)N1CCC[C@H]1C(=O)N1CCC[C@H]1C(=O)N1CCC[C@H]1C(=O)N[C@@H](CO)C(N)=O)[C@@H](C)CC)C(C)C)C(=O)O
B2: SEQ ID NO: 7 (peptide)
peptide: H[Aib]HGTFTSDLSKQK([γGlu-Stearoyl])EEEAVRLFIEWLKAGGPSSGAPPPS-NH2
B3: SEQ ID NO: 12 (peptide)
peptide: H[Aib]HGTFTSDLSKQK([γGlu-Palmitoyl])EEEAVRLFIEWLKAGGPSSGAPPPS-NH2

Key:
Test in all cases: cell-based or functional assay
human glucagon receptor [1] = molecular target: T2, human glucagon receptor (human, UniProt P47871 26-477)
T2 sequence (P47871 26-477): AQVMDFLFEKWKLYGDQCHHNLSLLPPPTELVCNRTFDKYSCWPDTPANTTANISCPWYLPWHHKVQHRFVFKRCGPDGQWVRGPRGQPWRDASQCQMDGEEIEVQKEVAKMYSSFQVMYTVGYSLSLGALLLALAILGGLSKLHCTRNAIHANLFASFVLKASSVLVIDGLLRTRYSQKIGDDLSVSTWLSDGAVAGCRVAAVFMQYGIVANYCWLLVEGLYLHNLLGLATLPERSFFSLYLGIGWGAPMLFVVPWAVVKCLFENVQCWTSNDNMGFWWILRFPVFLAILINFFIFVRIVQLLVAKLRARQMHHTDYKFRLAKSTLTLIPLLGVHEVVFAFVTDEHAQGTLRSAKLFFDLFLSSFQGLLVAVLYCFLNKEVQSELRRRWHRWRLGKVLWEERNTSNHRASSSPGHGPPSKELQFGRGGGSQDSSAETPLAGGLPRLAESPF

human GLP-1 receptor [2] = molecular target: T3, human GLP-1 receptor (human, UniProt P43220 24-463)
human GIP receptor [3] = molecular target: T1, human GIP receptor
human glucagon receptor [4] = molecular target: T2, human glucagon receptor; remark: listed apart in the source
human GLP-1 receptor [5] = molecular target: T3, human GLP-1 receptor; remark: listed apart in the source
human GIP receptor [6] = molecular target: T1, human GIP receptor; remark: listed apart in the source

Binder | EC50 hGlucagon-R (cAMP formation) (human glucagon receptor [1]) [pM] | EC50 hGLP-1R (cAMP formation) (human GLP-1 receptor [2]) [pM] | EC50 hGIP-R (cAMP formation) (human GIP receptor [3]) [pM] | EC50 hGlucagon-R (cAMP formation) (human glucagon receptor [4]) [pM] | EC50 hGLP-1R (cAMP formation) (human GLP-1 receptor [5]) [pM] | EC50 hGIP-1 (cAMP formation) (human GIP receptor [6]) [pM]
B1 | 39.9 | 8.1 | 407 | 39.9 | 8.1 | 407
B2 | 5.8 | 6.5 | 25.6 | 5.8 | 6.5 | 25.6
B3 | 12.8 | 3.3 | 8.8 | 12.8 | 3.3 | 8.8
